Measurements from patent US20140314832A1 (SHANGHAI PULMONARY HOSPITAL TONGJI UNIVERSITY SCHOOL OF …, published 2014).

B1: Nb11 (VHH)
VHH: MQAQLAGQLQLVESGGGLVQPGGSLRLSCVVSGVTFNNYGMTWVRQAPGKGLEWISTIYSNGHTYYADFVKGRFTISRDNAKNTLYLQMISLKPEDTAKYYCRLTGETYRGQGTQVTVSSEPKTRKPQGPRGLAAAGAPVPYPDPLEPRAA
notes: Alpaca VHH clone; screened as phage clone; also called N0; 11; rSPA-Nb
B2: Nb17 (VHH)
VHH: MQAQLAVQLQLVESGGGLVQPGGSLRLSCVVSGVTISNYGMSWVRQAPGKGLEWISTIYSNGHTYSADSVKGRFTISRDNAKNTLYLQMNSLKPEDTAKYYCKLVGETHRGQGTQVTVSSEPKTPKPQGPRGLAAAGAPVPYPDPLEPRAA
notes: Alpaca VHH clone; screened as phage clone, then cloned into PET-30a, expressed in E. coli BL21 (DE3), nickel-purified, 17 kDa, detected with anti-His; also called N0; 17; rSPA-Nb
B3: Nb22 (VHH)
VHH: MQAQLAGQLQLVESGGGLVQPGGSLRLSCAASGRAFSVYAVGWYRQPPGKQRELVASITDGGSTNYADSVKGRFTVSRDNARNTAYLDMNSLKVEDTAVYYCNANYGGSVLYNYWGPGTQVTVSTEPKTPKPQGPRGLAAAGAPVPYPDPLEPRAA
notes: Alpaca VHH clone; screened as phage clone; also called N0; 22; rSPA-Nb
B4: Nb27 (VHH)
VHH: MQAQLAVQLQLVESGGGLVQPGGSLRLSCEVSGSRGSIYFSGWYRQAPGKQRELVASITSGGTTNYADSVKGRFTISRDNAKNTVYLQMNSLKPEDTAVYYCNIGRYGLGGSWGQGTQVTVSSEPKTPKPQGPRGLAAAGAPVPYPDPLEPRAA
notes: Alpaca VHH clone; screened as phage clone; also called N0; 27; rSPA-Nb
B5: Nb28 (VHH)
VHH: MQAQLAGQLQLVESGGGLVQPGGSLRLSCEASGFTFDDYAIGWFRQAPGKEREEVSCISHNGGTTNYADSVKGRFSISRDNAKNTVYLQMNGLKPEDTANYYCAGARSGLCVFFELQDYDYWGQGTQVTVSSAHHSEDPGPRGLAAAGAPVPYPDPLEPRAA
notes: Alpaca VHH clone; screened as phage clone; also called N0; 28; rSPA-Nb
B6: Nb32 (VHH)
VHH: MQAQLAGQLQLVESGGGLVQPGGSLRLSCTASKFHLDSYAVAWFRQTPGKEREAVSFINTSDDVTYFADSVKGRFTISRDNSKNTVYLQMNVLKPEDTSVYVCAAVRSPGPTGPSMQPMWSVPDLYDYWGQGTQVTVSSAHHSEDPGPRGLAAAGAPVPYPDPLEPRAA
notes: Alpaca VHH clone; screened as phage clone; also called N0; 32; rSPA-Nb
B7: Nb34 (VHH)
VHH: MQAQLAVQLQLVESGGGTVQPGGSLNLSCVTSGFTFSRHDMSWVRQAPGKGPEWISGIGTSGTSGRYASSVKGRFTISRDNAKDTLYLQMDSLKPEDTGLYYCTTGGVYSAYVQPRGKGTQVTVSSAHHSEDPGPRGLAAAGAPVPYPDPLEPRAA
notes: Alpaca VHH clone; screened as phage clone; also called N0; 34; rSPA-Nb
B8: Nb36 (VHH)
VHH: MQAQLAVQLQLVESGGGLVQPGGSLRLSCAASGRAFSVYAVGWYRQIPGNQREMVAAISSGGNTKYSDSVKGRFTVSSEPKTPKPQGPRGLAAAGAPVPYPDPLEPRAA
notes: screened as phage clone; also called N0; 36; rSPA-Nb
B9: Nb41 (VHH)
VHH: MQAQLAGQLQLVESGGGMVQPGGSLRLSCAASGFIFSRYDMGWVRQTPGKGREWVSGINSGGGRTYYADSVKGRFTISRDDDKATLYLSMDGLKPEDTALYHCVRFTVKTPQGYYYLNDFDYWGQGTQVTVSSEPKTPKPQGPRGLAAAGAPVPYPDPLEPRAA
notes: Alpaca VHH clone; screened as phage clone; also called N0; 41; rSPA-Nb
B10: Nb43 (VHH)
VHH: MQAQLAGQLQLVESGGGLVQIGGSLRLSCAASGSDFSIYHMGWYRQAPGKQRELVAAITSGGSTNYADSVKGRFTISSDNAKNTVYLQMNSLKPEDTAVYYCNADGVPEYSDYASGPVYWGQGTQVTVSSAHHSEDPGPRGLAAAGAPVPYPDPLEPRAA
notes: Alpaca VHH clone; screened as phage clone; also called N0; 43; rSPA-Nb
B11: Nb45 (VHH)
VHH: MQAQLAVQLQLVESGGGLVQAGGSLRLSCVASGSMFNFYGMAWYRQAPGKQRELVASIDSEGRTTNYPDSLKGRFTISRDDAKSTAYLQMNNLIPDDTAVYYCNAFRGRMYDYWGQGTQVTVSSEPKTPKPQGPRGLAAAGAPVPYPDPLEPRAA
notes: Alpaca VHH clone; screened as phage clone; also called N0; 45; rSPA-Nb
B12: Nb47 (VHH)
VHH: MQAQLAGQLQLVESGGGRVQAGGSLTLSCAASGDIFTLASMGWYREDLHKKRELVAQLMSDGTANYGDSVKGRVTISRDDVDTTVHLRMNTLQPSDTGEYFCYIHTSREITWGRGTQVTVSQGESSAPQSSAPQATVSSAHHSEDPGPRGLAAAGAPVPYPDPLEPRAA
notes: Alpaca VHH clone; screened as phage clone; also called N0; 47; rSPA-Nb
B13: Nb48 (VHH)
VHH: MQAQLAGQLQLVESGGGLVEVGESLRLSCVALGFTLDGYAIGWFRQAPGKEREKISCISSTGDSTNYDDSVKGRFTISRDTAKSTVFLQMNNLIPEDTAIYYCGADLLARCGRVWYFPPDLNYRGQGTQVTVSSAHHSEDPGPRGLAAAGAPVPYPDPLEPRAA
notes: Alpaca VHH clone; screened as phage clone; also called N0; 48; rSPA-Nb
B14: Nb1 (VHH)
VHH: MQAQLAGQLQLVESGGGLVQPGGSLKLSCTASETTFEIYPMAWYRQAPGKQRELVAGINMISSTKYIDSVKGRFTISRDNDKNTMYLQMNSLKPEDTAVYYCNLDTTMVEGVEYWGQGTQVTVSSAHHSEDPGPRGLAAAGAPVPYPDPLEPRAA
notes: Alpaca VHH clone; screened as phage clone (pCANTAB 5E); also called N0; rSPA-Nb
B15: Nb9 (VHH)
VHH: MQAQLAGQLQLVESGGGLVQPGGSLRLSCTASEFTLDYHSIGWFRQAPGKEREGVSCISYGDGTTFYTDSVKGRFTISRDNAKNTVTLQMNSLKPEDTAVYYCAASPGRLLLFRLCMSEDEYDFWGQGTQVTVSSEPKTPKPQGPRGLAAAGAPVPYPDPLEPRAA
notes: Alpaca VHH clone; screened as phage clone; also called N0; rSPA-Nb
B16: Nb18 (VHH)
VHH: MQAQLAGQLQLVESGGGLVQPGGSLMLSCVVSGVTISNYGMTWVRQAPGKGLEWISTIYSNGHTYYADSVKGRFTASRDNAKNTLYLQMNSLKPEDTAKYYCKLTGETHRGQGTQVTVSSEPKTPKPQGPRGLAAAGAPVPYPDPLEPRAA
notes: Alpaca VHH clone; screened as phage clone; also called N0; 18; rSPA-Nb
B17: Nb19 (VHH)
VHH: MQAQLAGQLQLVESGGGLVQPGGSLRLSCTASEFTLDYHSIGWFRQAPGKEREGVSCISYGDGTTFYTDSVKGRFTISRDNAKNTVTLQMNSLKPEDTAVYYCAASPGRLLLFRLCMSEDEYDFWGQGTQVTVSSEPKTPKPQGPRGLAAAGAPVPYPDPLEPRAA
notes: Alpaca VHH clone; screened as phage clone; also called N0; 19; rSPA-Nb
B18: Nb3 (VHH)
VHH: MQAQLAVQLQLVESGGGLVQPGGSLRLSCVVSGVTFNNYGMSWVRQAPGKGLEWISSIYSNGHTYSADSVKGRFTISRDNANNTLYLQMNSLKPEDTANYYCKLVGETHRGQGTQVTVSSEPNTPKPQGPRGLAAAGAPVPYPDPLEPRAAYTVESCLA
notes: as for B15

What was measured:
[1] = target: T1, natural SP-A in rat lung tissue (rat, UniProt P08427 21-248); assay: immunohistochemistry (method of Example 6, rat lung tissue)
T1 construct: The immunohistochemistry is done on rat lung tissue; also called natural SP-A in the lung tissue

[2] = target: T2, rat pulmonary surfactant protein A (rSP-A), recombinant (rat (Rattus norvegicus), UniProt P08427 21-248, limits assumed); assay: ELISA of purified nanobody on rSP-A, OD450
[3] = target: T2, rat pulmonary surfactant protein A …; assay: indirect phage ELISA on coated rSP-A, OD 450 nm
Procedure: (1) Single clonies obtained from the three rounds of selections and grown on 2YTAG plates were inoculated into the 72-well culture plate at 30° C., and cultured with shaking overnight. (2) 400 ul of M13K07 helper phage was put in each well of another 72-well culture plate (labeled P1 Plate) the next day. (3) 40 ul of cultured medium were taken from each well of the Master Plate, which was cultured overnight, and put in each well of the P1 Plate, and incubated at 37° C. with shaking overnight. The culture supernatant was prepared by centrifugation at 1500 g for 20 minutes set aside, and the recombinant antibody was obtained. (4) A 96-well microtiter plate was coated with rSP-A. (5) 160 ul of recombinant antibody was mixed with 40 μL of MPBS, incubated for 20 minutes at room temperature. It was then added to blocked microtiter wells and reacted for 2 hours at 37° C. (6) Washing and adding HRP secondary antibody: HRP-labeled antibody against M13KO7 was diluted 1:4000 in PBS, 200 ul of that was added to each well, and incubated and reacted for 1 hour at 37° C. (7) 200 ul TMB substrate solution was added to each well, incubated at 37° C. for about 45 minutes to develop the image, 100 ul of stop solution was added to each well to stop the development process, and measurements were taken at 450 nm. Preliminary screening was conducted to select positive clones binding to rSP-A ith specificity.

[4] = target: T1, natural SP-A in rat lung tissue; assay: immunohistochemistry on rat lung tissue slices, HIS-IgG-HRP secondary
From the text: Fresh tissues from the lung, heart, liver, spleen, kidney, muscle of rat were fixed and sliced, and diluted primary antibody (Nb6, Nb17 for the experimental groups, SPA polyclonal antibody (SPA-poly-ant) as a positive control group, and alliinase as a negative control group) was dropped on. The secondary antibody was HIS-IgG-HRP. […] The binding effect of Nb17 was similar to that of SPA-poly-ant, while Nb6 had weaker binding effect than Nb 17, as there is differneces in the amino acid sequence at the antigen binding region between these two. All three antibodies had no obvious binding effect with rat heart, liver, spleen, kidney, muscle tissues, nor had the negative control group (FIG. 6).

Row | Binder | binding result [1] | affinity value relative to negative control [3] | also measured
1 | B1 | binds | 3 fold over negative control | OD450 relative to negative control [2]: 5 fold over negative control
2 | B2 | – | – | binding result [4]: binds
3 | B3 | – | 3 fold over negative control | –
4 | B4 | – | 3 fold over negative control | –
5 | B5 | – | 3 fold over negative control | –
6 | B6 | binds | 3 fold over negative control | OD450 relative to negative control [2]: 5 fold over negative control
7 | B7 | – | 3 fold over negative control | –
8 | B8 | – | 3 fold over negative control | OD450 relative to negative control [2]: 5 fold over negative control
9 | B9 | – | 3 fold over negative control | –
10 | B10 | – | 3 fold over negative control | –
11 | B11 | – | 3 fold over negative control | –
12 | B12 | – | 3 fold over negative control | –
13 | B13 | binds | 3 fold over negative control | OD450 relative to negative control [2]: 5 fold over negative control
14 | B14 | – | 3 fold over negative control | –
15 | B15 | binds | – | –
16 | B16 | binds | – | –
17 | B17 | binds | – | –
18 | B18 | – | 3 fold over negative control | –
